What is called Kd is the free concentration of one partner at which half of the binding sites on the other are occupied at equilibrium, for simple one-to-one binding. As usually defined, the koff is the rate constant with which the complex falls apart. A high value points to a short-lived complex. A word on the kon: it is the rate constant with which the complex forms. For orientation: EC50 (read off the curve) means the concentration giving half of the maximal effect. High values mean a less potent agent, low ones a more potent agent.

Residue numbers refer to the chain shown, from its start.

Experiment [1] concerns the target T1, FZD+KRD (human, UniProt Q01973).
T1 construct: frizzled plus kringle domains, His tag; also called FK domain; human ROR1-frizzled-kringle domain
In words: scFv ELISA on coated domain, anti-HA-HRP, OD450. On the procedure: (§1) Thereafter, the plate was treated with each scFv and reacted for 2 hours, followed by washing four times using PBST and distilled water. After binding at room temperature for 1 hour using an HRP-conjugated anti-HA antibody (Roche, 12013819001, Anti-HA-Peroxidase, High Affinity) capable of binding to the HA tag, washing was performed six times using PBST and distilled water. After color development by adding TMB substrate solution (Thermo Scientific, 34029, 1-Step™ Ultra TMB-ELISA Substrate Solution), the color reaction was stopped with stop solution (Invitrogen, SS04, ELISA Stop Solution), and the absorbance was measured at OD 450 nm. The scFv binding to each domain was analyzed through ELISA.
In general terms: ELISA stands for enzyme-linked immunosorbent assay.

Experiment [2] addresses T2, FZD (human, UniProt Q01973).
T2 construct: frizzled domain, His tag; also called Frizzled domain; human ROR1-frizzled domain
In words: scFv ELISA on coated domain, anti-HA-HRP, OD450. On the procedure:
as §1

The target of experiment [3] is ROR1 expressed on cell surface (Jeko-1 cell line, AMB-LC-0003T and AMB-LC-0002T patient-derived lung cancer … (human, UniProt Q01973 30-937)). Put plainly: cell-based or functional assay.
For experiment [4], the target named is T3, Ig-like (human, UniProt Q01973).
T3 construct: Ig-like domain, His tag; also called Ig-like domain; human ROR1-immunoglobulin domain
Put plainly: scFv ELISA on coated domain, anti-HA-HRP, OD450. On the procedure: as §1

In experiment [5] the target is T4, human ROR1 (human, UniProt Q01973 30-403, limits assumed).
T4 construct: also called human ROR1 protein
Put plainly: SPR (Biacore 3000), human ROR1 on CM5 chip, IgG injected, 1:1 Langmuir. On the procedure: (§2) To more quantitatively analyze the binding ability of the anti-ROR1 antibody to ROR1, SPR (surface plasmon resonance) was performed. A Biacore 3000 device (GE Healthcare) was used. Using the amine coupling method, human ROR1 or mouse ROR1 was diluted with 10 mM sodium acetate, pH 4.5 and immobilized on a CM5 sensor chip (GE Healthcare) at 300 response units (RU). The activated portion remaining on the surface of the sensor chip was deactivated by adding 1 M ethanolamine-HCl (pH 8.5).
On the technique in general: SPR reads the build-up and loss of mass on a sensor chip optically.

For experiment [6], the target named is T4, human ROR1. In words: ELISA, IgG on coated human ROR1, OD450. On the procedure: (§3) A 96-well plate was coated at 4° C. for 16 hours with each of human ROR1 and mouse ROR1 proteins at a concentration of 2 μg/ml and then blocked using […]. […] After washing with PBST and distilled water, binding at room temperature for 1 hour using a goat-derived HRP-conjugated anti-human antibody (Invitrogen, 31482, Goat anti-Human IgG F(ab′)₂ Secondary Antibody, HRP) and then washing again using PBST and distilled water were performed. After color development by adding TMB substrate solution (Thermo Scientific, 34029, 1-Step™ Ultra TMB-ELISA Substrate Solution), the color reaction was stopped with stop solution (Invitrogen, SS04, ELISA Stop Solution), and the absorbance was measured at OD 450 nm. It was confirmed that the anti-ROR1 antibody of the present invention and the modified antibody thereof with improved biological and physical properties […] to human ROR1 and mouse ROR1 (FIG. 2).

The target in experiment [7] is T5, mouse ROR1 (mouse, UniProt Q9Z139 30-403, limits assumed).
T5 construct: also called mouse ROR1 protein
In words: SPR (Biacore 3000), mouse ROR1 on CM5 chip, IgG injected, 1:1 Langmuir. On the procedure:
as §2

Experiment [8] addresses T5, mouse ROR1. Put plainly: ELISA, IgG on coated mouse ROR1, OD450. On the procedure: as §3

T1 sequence (Q01973 165-395 limits assumed): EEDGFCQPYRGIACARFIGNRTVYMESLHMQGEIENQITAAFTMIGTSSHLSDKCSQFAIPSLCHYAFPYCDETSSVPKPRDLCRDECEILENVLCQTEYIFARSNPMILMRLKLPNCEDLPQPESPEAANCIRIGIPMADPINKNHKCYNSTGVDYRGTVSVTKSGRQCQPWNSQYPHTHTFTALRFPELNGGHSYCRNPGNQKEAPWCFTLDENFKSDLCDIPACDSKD
T2 sequence (Q01973 165-305 limits assumed): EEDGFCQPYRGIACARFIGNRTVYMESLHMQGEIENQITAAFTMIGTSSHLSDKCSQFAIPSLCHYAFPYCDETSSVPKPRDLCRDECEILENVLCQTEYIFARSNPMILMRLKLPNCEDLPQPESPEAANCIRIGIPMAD
T3 sequence (Q01973 39-151 limits assumed): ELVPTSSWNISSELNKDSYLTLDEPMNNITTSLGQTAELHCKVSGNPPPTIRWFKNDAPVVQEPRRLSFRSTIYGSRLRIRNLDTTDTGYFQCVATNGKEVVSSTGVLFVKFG
Chain of ROR1 expressed on cell surface (Jeko-1 cell line, AMB-LC-0003T and AMB-LC-0002T patient-derived lung cancer … (Q01973 30-937): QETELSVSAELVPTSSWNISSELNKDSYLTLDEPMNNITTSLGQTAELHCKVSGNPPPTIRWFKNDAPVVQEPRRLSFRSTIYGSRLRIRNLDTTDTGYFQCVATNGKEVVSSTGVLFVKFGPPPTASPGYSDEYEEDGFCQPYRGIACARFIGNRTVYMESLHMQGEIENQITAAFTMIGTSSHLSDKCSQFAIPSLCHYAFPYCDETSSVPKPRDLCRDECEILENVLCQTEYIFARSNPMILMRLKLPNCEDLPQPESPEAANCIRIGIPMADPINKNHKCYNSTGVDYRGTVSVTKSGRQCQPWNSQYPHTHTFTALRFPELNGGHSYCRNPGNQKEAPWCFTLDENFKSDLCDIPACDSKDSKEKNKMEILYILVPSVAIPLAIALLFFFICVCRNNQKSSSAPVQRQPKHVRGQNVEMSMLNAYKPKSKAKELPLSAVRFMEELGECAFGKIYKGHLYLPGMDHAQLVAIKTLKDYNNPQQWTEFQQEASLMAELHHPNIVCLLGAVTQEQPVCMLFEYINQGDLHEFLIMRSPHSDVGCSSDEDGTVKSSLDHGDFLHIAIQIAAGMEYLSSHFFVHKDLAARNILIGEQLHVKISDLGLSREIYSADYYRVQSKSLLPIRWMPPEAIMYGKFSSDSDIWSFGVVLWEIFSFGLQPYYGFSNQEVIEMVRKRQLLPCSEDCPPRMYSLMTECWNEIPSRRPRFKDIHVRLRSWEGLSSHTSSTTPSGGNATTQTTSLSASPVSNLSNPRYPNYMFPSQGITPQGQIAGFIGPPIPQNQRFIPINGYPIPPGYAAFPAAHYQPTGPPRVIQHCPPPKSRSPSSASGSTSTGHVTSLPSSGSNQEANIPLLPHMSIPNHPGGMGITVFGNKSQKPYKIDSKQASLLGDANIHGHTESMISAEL
T5 sequence (Q9Z139 30-403 limits assumed): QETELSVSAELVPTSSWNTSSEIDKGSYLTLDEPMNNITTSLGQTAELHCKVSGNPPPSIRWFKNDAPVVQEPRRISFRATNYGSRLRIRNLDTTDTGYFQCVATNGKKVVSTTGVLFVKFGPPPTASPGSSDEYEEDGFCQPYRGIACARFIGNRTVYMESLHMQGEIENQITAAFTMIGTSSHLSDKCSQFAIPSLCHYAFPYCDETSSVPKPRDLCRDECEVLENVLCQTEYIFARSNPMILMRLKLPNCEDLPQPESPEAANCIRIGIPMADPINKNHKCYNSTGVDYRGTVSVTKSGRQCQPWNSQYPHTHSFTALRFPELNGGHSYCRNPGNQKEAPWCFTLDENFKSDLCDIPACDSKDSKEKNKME
T4 sequence (Q01973 30-403 limits assumed): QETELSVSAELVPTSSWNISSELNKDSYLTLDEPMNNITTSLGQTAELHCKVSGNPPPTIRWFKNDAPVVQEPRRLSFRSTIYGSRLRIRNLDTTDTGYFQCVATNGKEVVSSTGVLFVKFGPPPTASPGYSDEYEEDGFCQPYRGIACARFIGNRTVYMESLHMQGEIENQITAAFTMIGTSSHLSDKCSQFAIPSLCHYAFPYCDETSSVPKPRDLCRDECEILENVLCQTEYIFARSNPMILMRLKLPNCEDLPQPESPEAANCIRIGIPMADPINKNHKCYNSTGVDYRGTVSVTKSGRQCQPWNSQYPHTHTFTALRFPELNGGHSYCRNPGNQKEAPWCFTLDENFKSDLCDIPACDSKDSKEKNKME

B1: P015044 scFv (scFv, V domains shown)
VH: EVQLLESGGGLVQPGGSLRLSCAASGFTFSNYAMHWVRQAPGKGLEWVSIIYPDDDTRYNPSFRGRFTISRDNSKNTLYLQMNSLRAEDTAVYYCARDLLYAGDYWGQGTLVTVSS
VL: QSVLTQPPSASGTPGQRVTISCGGNNIESKAVHWYQQLPGTAPKLLIYANNKRPSGVPDRFSGSKSGTSASLAISGLRSEDEADYYCQSYDSNKVVFGGGTKLTVL
notes: HA-tagged scFv
Turning to B1, the binding result in experiment [1] and in experiment [2] was “no binding” throughout.

B2: P015043-vcPAB-MMAE (antibody, IgG1, V domains shown)
VH: EVQLLESGGGLVQPGGSLRLSCAASGFTFSNYDMSWVRQAPGKGLEWVSWISPGGSSIYYADSVKGRFTISRDNSKNTLYLQMNSLRAEDTAVYYCAKTLTRFDYWGQGTLVTVSS
VL: QSVLTQPPSASGTPGQRVTISCTGSSSNIGNNNVSWYQQLPGTAPKLLIYYDSHRPSGVPDRFSGSKSGTSASLAISGLRSEDEADYYCGTWDSSLSGYVFGGGTKLTVL
modifications: maleimidocaproyl-valine-citrulline-p-aminobenzyloxycarbonyl monomethyl auristatin E on cysteine sulfhydryls of reduced disulfides; positions not given; DAR 3.32
Turning to B2, in experiment [3], the “Fold Change of IC50, AMB-LC-0002T/AMB-LC-0003T” value came out at 4.8 fold; the “IC50 (nM), spheroid volume after 6 days of treatment, AMB-LC-0003T (high ROR1 expression)” value is 34.6 nM; the “IC50 (nM), spheroid volume, AMB-LC-0002T (very low ROR1 expression)” value stood at 165 nM.

B3: P015022 scFv (scFv, V domains shown)
VH: B2 VH with W50S, P53S, G54N, S56G, I58T, T99C, T101L, R102Q
VL: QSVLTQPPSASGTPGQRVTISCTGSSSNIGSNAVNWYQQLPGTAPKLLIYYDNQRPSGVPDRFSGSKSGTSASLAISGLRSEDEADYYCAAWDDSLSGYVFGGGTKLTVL
notes: HA-tagged scFv
For B3, the binding result in experiment [1] and in experiment [2] was “no binding” in each case.

B4: P015028 scFv (scFv, V domains shown)
VH: EVQLLESGGGMVQTGGSLRLSCAASGFTFSDYAMSWVRQAPGKGLEWVSAISYDNGNTYYADSVKGRFTISRDNSKNALYLQMNSLRAEDTAVYYCAKVNHRFDYWGQGTLVTVSS
VL: B2 VL with T23S, N31S, N33T, V34F, S35N, Y51A, D52N, G90A, T91S, S94A
notes: HA-tagged scFv
Turning to B4, the binding result in experiment [1] and in experiment [2] was “no binding” throughout.

B5: P015023 scFv (scFv, V domains shown)
VH: EVQLLESGGGLVQPGGSLRLSCAASGFTFSGYDMSWVRQAPGKGLEWVSGISHDGRSKYYADSVKGRFTVSRDNSKNTLYLQMNSLRAEDTAVYYCAKDVPFKMRFIFDYWGQGTLVTVSS
VL: B2 VL with I20L, N31S, N33T, S35Y, Y51A, H54Q, T91S, S97N, G98A
notes: HA-tagged scFv
Consider B5, for which the binding result in experiment [1] and in experiment [2] was “no binding” in each case.

B6: P015042 scFv (scFv, V domains shown)
VH: EVQLLESGGGLVQPGGSLRLSCAASGFTFSDYAMSWVRQAPGKGLEWVSVISSDGGSIYYADSVKGRFTISRDNSKNTLYLQMNSLRAEDTAVYYCAKDRSRDMEVDFDYWGQGTLVTVSS
VL: B2 VL with T23S, N31S, N33Y, S35T, Y51D, D52S, H54Q, S94Y
notes: HA-tagged scFv
As for B6, the binding result in experiment [1] and in experiment [2] was “no binding” throughout.

B7: P015020 scFv (scFv, V domains shown)
VH: B2 VH with N31G, D33Y, W50V, P53H, G54D, I58T, T99V, L100K, T101Y, R102I
VL: B2 VL with N33T, S35N, Y51A, H54N, G90D, S97N, G98A
notes: HA-tagged scFv
B7: the binding result in experiment [1] and in experiment [2] was “no binding” throughout.

B8: P015016 scFv (scFv, V domains shown)
VH: EVQLLESGGGLVQTGGSLRLSCAASGFTFSDYAMSWVRQAPGKGLEWVSAISHGGSSKYYADSVKGRFTISRDNSKNTLYLQMNSLRAEDTAVYYCARVSLDFDYWGQGTLVAVSS
VL: B2 VL with T23S, N31S, N33T, V34F, S35N, Y51A, G90A, T91A, S94A, G98A
notes: HA-tagged scFv
In the case of B8, the binding result is reported as “no binding” in experiment [1], “no binding” in experiment [2] and “binds” in experiment [4].

B9: P015024 scFv (scFv, V domains shown)
VH: B2 VH with N31D, D33Y, W50L, G55S, S56D, I58K, T99I, L100E, T101P, R102D
VL: B2 VL with T23S, N31S, N33T, V34F, S35N, Y51A, G90A, S94Y, G98A
notes: HA-tagged scFv
On to B9, for which the binding result in experiment [1] and in experiment [2] was “no binding” throughout.

B10: P015017 scFv (scFv, V domains shown)
VH: EVQLLESGGGLVQPGGSLRLSCAASGFTFSGYAMSWVRQAPGKGLEWVSVISPGSGSKYYADSVRGRFTVSRDNSKNTLYLQMNSLRAEDTAVYYCARYPLLRYAGALYSAYAMDVWGQGTLVTVSS
VL: B2 VL with T23S, N31S, N33Y, Y51A, D52N, T91A, S97N
notes: HA-tagged scFv
For the molecule B10, the binding result in experiment [1] was “no binding”; in experiment [2] it was “no binding”; in experiment [4], “binds”.

B11: P015042v1-1 (antibody, V domains shown)
VH: B6 VH with G55V
VL: B2 VL with T23S, N31S, N33Y, S35T, Y51D, D52S, H54Q, S94Y, S97N
notes: Variant of P015042v1, tested as IgG; also called HC G55 substituted with V
On to B11, for which, in experiment [5], the Kd stood at 0.033 nM, the koff is 7.22e-05 s⁻¹ and the kon is 2.19e+06 M⁻¹ s⁻¹. In addition, the “EC50 (read off the curve)” value in experiment [6] was about 0.5 nM. Further, in experiment [7], the dissociation constant Kd is 0.192 nM, the koff amounted to 0.00043 s⁻¹ and the kon is 2.24e+06 M⁻¹ s⁻¹. For the same molecule, the “EC50 (read off the curve)” value in experiment [8] was about 0.3 nM.

B12: P015042v1-2 (antibody, V domains shown)
VH: B6 VH with G55K
VL: B2 VL with T23S, N31S, N33Y, S35T, Y51D, D52S, H54Q, S94Y, S97N
notes: Variant of P015042v1, tested as IgG; also called HC G55 substituted with K
In experiment [5], B12 gave a Kd of 0.0152 nM, a koff of 4.08e-05 s⁻¹ and a kon of 2.66e+06 M⁻¹ s⁻¹. For the same molecule, in experiment [6], the “EC50 (read off the curve)” value was about 0.5 nM. For the same molecule, in experiment [7], the affinity, expressed as Kd, was 0.0831 nM; the koff came out at 0.000226 s⁻¹; the kon stood at 2.71e+06 M⁻¹ s⁻¹. For the same molecule, the “EC50 (read off the curve)” value in experiment [8] is about 0.3 nM.

B13: P015004-vc-PAB-MMAE (antibody, IgG1, V domains shown)
VH: EVQLLESGGGLVQPGGSLRLSCAASGFTFSDYAMAWVRQAPGKGLEWVSIIYPGDSETIYSPSFEGRFTISRDNSKNTLYLQMNSLRAEDTAVYYCARDTYWEGYFDLWGQGTLVTVSS
VL: EIVLTQSPGTLSLSPGERATLSCRASQGISNYLAWYQQKPGQAPRLLIYDASNLESGIPDRFSGSGSGTDFTLTISRLEPEDFAVYYCQQYANLPYTFGQGTKVEIK
modifications: maleimidocaproyl-valine-citrulline-p-aminobenzyloxycarbonyl monomethyl auristatin E on cysteine sulfhydryls of reduced disulfides; positions not given; average 3.0 drugs per antibody
With B13, in experiment [3], the “Fold Change of IC50, AMB-LC-0002T/AMB-LC-0003T” value was 15 fold; the “IC50 (nM), spheroid volume after 6 days of treatment, AMB-LC-0003T (high ROR1 expression)” value turned out to be 10.6 nM; the “IC50 (nM), spheroid volume, AMB-LC-0002T (very low ROR1 expression)” value stood at 160 nM.

B14: P015018 scFv (scFv, V domains shown)
VH: EVQLLESGGGLVQPDGSMRLICAASGFTFSSYAKHWVRQAPGKGLEWVSEIYTSGSTNYNPSLKSRFTISRDNSKNTLYLQMNSLRAEDTAVYYCARDTWWEGYFDLWGQGTLVTVSS
VL: B13 VL with G28S, I29V, N31T, N53S, Y91S, A92Y, Y96H
notes: HA-tagged scFv
Regarding B14, the binding result in experiment [1], in experiment [2] and in experiment [4] was “no binding” throughout.

B15: P015004 scFv (scFv, V domains shown)
VH: B13 VH
VL: B13 VL
notes: HA-tagged scFv
As to B15, the binding result in experiment [1], in experiment [2] and in experiment [4] was “no binding” throughout.

The values above are taken from patent US20260028400A1 (AIMED BIO, published 2026).
